The values below come from US12723078 (University of Texas, dated 2026).

Broadly, the EC50 is the concentration that produces a half-maximal response. For orientation: Kd means the concentration at which binding is half-saturated. The koff is a measure of how fast the partners let go of each other. One may read the kon as the rate constant with which the complex forms.

Where a chain is given by its changes, count along the chain named.

B1: B1-#173-2 (antibody, V domains shown)
VH: QSVEESGGDLVKPGASLTLTCTASGFDFSSNAYLCWVRQAPGKGLEWIGCIYDGTSGDTYYANWAKGRFTISRSSSTTVTLQMTSLTAADTATYFCARDTRSSNYYFNLWGPGTLVTISS
VL: ELVLTQTPSSTSAAVGGTVTINCQASQSVDNNKQLSWYQQKPGQPPKQLIYSASKLASGVPSRFKGSGSGTQFTLTISDLECDDAATYYCAGYYYSGSATDAWAFGGATEVEIN
notes: recombinant rabbit IgG
B2: B1-#74 (antibody, V domains shown)
VH: QSLEESGGGLVKPGASLTLTCTASGFSLNRYYMCWVRQAPGKGLEWIGCIYSGSGSTYYASWAKGRFTISKTSSTTVTLQMTSLPAADTATYFCGRLDYRVIYAFNLWGPGTLVTISS
VL: ELVLTQTPASVSAAVGGTVTINCQASQSIGSGNLAWYQQKPGQPPKLLIYLASTLASGVPPRFKGSGSGTEFTLTISDLECDDAATYYCQYTYYGTTYDNAFGGGTELEIK
notes: recombinant rabbit IgG
B3: B1-#178-2 (antibody, V domains shown)
VH: QKQLVESGGGLVQPEGSLALTCTASGFSFSSSYWICWVRQAPGKGLEWIACIYAGSSGSTYYASWVNGRFTVFKTSSTTVTLQMTSLTAADTATYFCARGGTSYRLDLWGPGTLVTVSS
VL: ELVLTQTPSSKSVAVGDTVTINCQASDNVYSNNYTSWFQQKPGQPPKQLLYYAAYRASGVPSRFKGSGSGTEFTLSISDVVCDDAATYYCSGHKDYSDDGSTFGGGTEVEIK
notes: recombinant rabbit IgG
B4: B1-#27 (antibody, V domains shown)
VH: EQSVKESGGGLVQPEGSLTLTCTVSGFSFSGSYWICWVRQAPGKGLEWIACIYGDSIATYYPNWAKGRFTISKTSSTTVTLQMASLTGADTATYFCARDRNGGSGAYGWDLWGPGTLVTISS
VL: ELDLTQTPASVSEPVGGTVTITCQASQSISSYLSWYQQTPGQPPKLLIYKASTLASGVPSRFKGSGSGTEFTLTISDLECADAATYYCQSYYYISATVDNTFGGGTEVEIK
notes: recombinant rabbit IgG
B5: B1-#22 (antibody, V domains shown)
VH: EQSLEESGGGLVKPGASLTLTCKASGFDFSSNDYMCWVRQAPGKGLEWIGCIYGGDGHTYYATWAKGRFTISKASSTTVTLQMTSLTAADTASYFCARGYSYGDTGYADAILTLDLWGPGTLVTVSS
VL: ELDLTQTPASVEAAVGGTVTIKCQASQTIGSYLSWYQQKPGQRPKLLIYEASKLASGVPSWFKGSGSGTEFTLTISDLECADAATYYCQSNYYRAGGNYGGAFGGGTEVEIK
notes: recombinant rabbit IgG
B6: B1-#196-2 (antibody, V domains shown)
VH: QEQLVESGGGLVQPEGSLTLTCTDSGFSFTKNYYMCWVRQAPGKGLEWIGCIYAGSTNTFYASWAKGRFTISKASSTTVDLKMTSLTVADTATYFCARDFVSYLNLWGPGTLVTVSS
VL: ELDMTQTPSSTSAAVGGTVTIKCQASQSVYNNNQLSWFQQKPGQPPKRLIYGASTLESGVPSRFSGSGSGTQFTLTISDLECDDAATYYCQGAVSSDYYPFGGGTEVEIK
notes: recombinant rabbit IgG
B7: B1-#198 (antibody, V domains shown)
VH: QSLEESGGGLVKPEGSLTLTCTASGFDLSNNYYICWVRQAPGKGLELIACVDSDLTDSADYASWAKGRFTISKTSSTTVTLQMTSLTAADTATYFCAGSGSGYYYYYGMDLWGPGTLVTISS
VL: ELDMTQTPASVSEPVGGTVTIKCQASQSIGSYLAWYQQKPGQPPKLLAFYASTLKSGVPPRFKGSGSGTEFTLTISDLECADAATYYCQSNRLSSSDVNAFGGGTEVEIK
notes: recombinant rabbit IgG
B8: B1-#3 (antibody, V domains shown)
VH: QSLEESEGDLVKPEGSLTLTCKASGFDFSSDAMCWVRQAPGKGLEWIGCIYNGDEITDHASWAKGRFTISKTSPTTVTLQMTSLTVADTATYFCARAVYSDGGAGYPYMYGMDLWGPGTLVTVSS
VL: ELDMTQTPASVEAAVGGTVTIKCQASQNIYSYLVWYQQKPGQPPKLLISKASTLASGVSSRFKGSGSGTEFTLTINDLECADAATYYCQTNYFSSTSHFGVFTFGGGTELEIK
notes: recombinant rabbit IgG
B9: B1-#18 (antibody, V domains shown)
VH: EQSVKESGGGLVKPGGTLTLTCIVSGFSLSRYAVTWVRQAPGKGPEWIGYIDTSSGNKDYANWVNGRFTISKTSSTTVTLQMTSLTAADTATYFCARGFSMFKLWGPGTLVTISS
VL: ELVMTQTPSSVSAAVGGTVTISCQASQSVYNNNNLAWYQQKPGQPPKRLIYSASTLDSGVPSRFSGSGSGTQFTLTISDLECDDAATYYCAGGYTYNINIFGGGTEVEIK
notes: recombinant rabbit IgG
B10: B1-#204 (antibody, V domains shown)
VH: QSVKESGGGLVKPGGTLTLTCTASGFSFSSSYCMCWVRQAPGKGLELIACIYTDSSGATYYASWAKGRFTISKSSSTTITLQMTSLTAADTATYFCARGWDYEDPGYTDTTYFSLWGPGTLVTVSS
VL: ELDMTQTPSSVEAAVGGTVTIKCQASQTIYTNLAWYQQKPGQPPNLLIYAASTLASGVSSRFKGSGSGTEFTLTISDLECADAATYYCQSYYGSSTTGNGFGGGTEVEIN
notes: recombinant rabbit IgG
B11: B1-#176 (antibody, V domains shown)
VH: B10 VH with V3L, K4E, G7E
VL: B10 VL with M4L, N110K
notes: recombinant rabbit IgG
B12: B1-#41-1 (antibody, V domains shown)
VH: QSVKESGGDLVKPGASLTLTCTASGFSFSSSYWICWVRQAPGKGLEWIACIYAGSSGSTYYASWAKGRFTISKTSSTTVTLQMTSLTAADTATYFCARSTSGSYGAGLGLWGPGTLVTISS
VL: ELDMTQTASPVSGAVGGTVTIKCQASQNIYNNIGWYQQKPGQPPNLLIYGPSYLASGVPSRFKGSRSGTEYTLTISDLECADAATYYCQSDDWMSISPDIVFGGGTEVEIK
notes: recombinant rabbit IgG
B13: B1-#72-1 (antibody, V domains shown)
VH: QSVKESGGGLVQPEGSLALTCKASGIDLSNYWYMCWVRQAPGKGLEWIGCVATDSSRTHYATWAKGRFTVSKTSSTTVTLQMTSLTAADTATYFCARGSGASTNGVWWVMGDGMDLWGPGTLVTISS
VL: ELVMTQTPSSVSAAVGGTVTIKCQASPSISTYLSWYQQKPGQPPKRLINRASTLASGVPPRFKGSGAGTQFTLTISDLECADAATYYCQNNYHSGSSNGGGVAFGGGTEVEIK
notes: recombinant rabbit IgG
B14: B1-#93 (antibody, V domains shown)
VH: EQSVEESGGDLVKPGTSLTLTCTASGFSFSGNTICWVRQAPGKRPEWIACIYPSSTSITTYATWAKGRFTVSKTSSTTVTLQMTSLTAADTATYFCARRYAAFLTYGSGAFDPWGPGTLVTISS
VL: ELDLTQTPASVSAAVGGTVTINCQASESIGSALAWYQQKPGQPPKLLIYSASALASGVPSRFKGSGSGTEYTLTISDLECADAATYYCQSYYGSGTTALDTFGGGTEVEIK
notes: recombinant rabbit IgG
B15: B1-#209 (antibody, V domains shown)
VH: SQSVEESGGDLVKPGGTLTLTCTASRIDLNNYYYISWVRQAPGKGLEWIGVVATDSSVTWYASWAKGQFTISKTSSTTVTLQMTSLTAADTATYFCARGSGAATNGVWWVMGDGMDLWGPGTLVTVSS
VL: ELVMTQTPASVSEPVGGTVTIKCQASQSISSYLSWYQQKPGQPPKRLIYKASTLASGVPSRFKGSGSGTEFTLTISGVQCADAATYYCQNNYHSGSSNGGGFAFGGGTEVEIK
notes: recombinant rabbit IgG
B16: B1-#110 (antibody, V domains shown)
VH: QSLEESGGDLVKPEGSLTLTCTASGFSFSSSYWICWVRQAPGKGLEWIGCIYAGNSANTYYASWAKGRFTISKTSSTTVTLQLTSLTAADTATYFCASRNGGAPDGLNLWGPGTLVTISS
VL: ELDLTQTPASVEAAVGGTVTIKCQASLNINSWLAWYQQKPGQPPKLLISYTSSLASGVPSRFKGSGSGTEYTLTINDLECADAATYYCQTTYFGTNGGGFGGGTEVEIK
notes: recombinant rabbit IgG
B17: B1-#3 (antibody, V domains shown)
VH: B8 VH
VL: B8 VL
notes: IgG; also called antagonistic B1-3

T1 sequence (Q8NHL6 24-461 limits assumed): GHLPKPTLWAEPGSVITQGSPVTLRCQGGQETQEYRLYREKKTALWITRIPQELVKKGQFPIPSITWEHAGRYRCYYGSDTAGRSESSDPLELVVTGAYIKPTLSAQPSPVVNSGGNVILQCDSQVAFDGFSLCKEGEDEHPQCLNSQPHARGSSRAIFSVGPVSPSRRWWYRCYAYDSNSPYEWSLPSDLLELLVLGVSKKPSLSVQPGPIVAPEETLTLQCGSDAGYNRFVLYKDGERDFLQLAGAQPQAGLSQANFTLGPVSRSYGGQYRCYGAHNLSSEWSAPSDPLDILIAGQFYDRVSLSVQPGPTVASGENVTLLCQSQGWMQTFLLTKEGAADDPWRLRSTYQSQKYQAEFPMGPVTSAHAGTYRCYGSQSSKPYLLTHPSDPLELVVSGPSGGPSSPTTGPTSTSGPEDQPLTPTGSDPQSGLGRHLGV
T2 sequence (O75019 17-461 limits assumed): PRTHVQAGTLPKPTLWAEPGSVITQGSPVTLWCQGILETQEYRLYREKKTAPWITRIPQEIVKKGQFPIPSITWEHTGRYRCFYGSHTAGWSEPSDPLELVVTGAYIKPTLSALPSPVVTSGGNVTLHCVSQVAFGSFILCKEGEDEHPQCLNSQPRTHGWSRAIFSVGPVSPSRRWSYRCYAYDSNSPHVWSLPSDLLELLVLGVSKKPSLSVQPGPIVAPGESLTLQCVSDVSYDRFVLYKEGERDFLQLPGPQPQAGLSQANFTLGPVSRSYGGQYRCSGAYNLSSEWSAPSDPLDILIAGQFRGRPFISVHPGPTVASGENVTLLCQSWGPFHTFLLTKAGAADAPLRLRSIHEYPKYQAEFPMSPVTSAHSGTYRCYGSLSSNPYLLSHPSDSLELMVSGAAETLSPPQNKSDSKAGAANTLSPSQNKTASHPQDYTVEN

The first assay concerns the target T1, recombinant LILRB1 (human, UniProt Q8NHL6 24-461).
T1 construct: LILRB1-Fc proteins were also made; also called LILRB1 recombinant proteins
Put plainly: ELISA, coated recombinant LILRB1, antibody titration.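 Also: serially diluted anti-LILRB1 antibodies incubated 60 min at 37 °C on plates coated with 50 ng/well recombinant protein, TMB colorimetric development read as absorbance at 450 nm.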
Experimental: ELISA. LILRB1 recombinant proteins (50 ng/well, 100 μL per well) were coated on Corning 96-well ELISA plates at 37° C. for 4 hrs. Plates were blocked for 2 hrs at 37° C. with 5% non-fat milk. After washing with PBST, 100 μL of serial diluted anti-LILRB1 antibodies were added and incubated for 60 min at 37° C. […] Plates were washed again with PBST for another 5 times, then the immunoreactions were developed with TMB substrates (Sigma, Cat #T0440) and stopped by the addition of 2 M H_2SO_4 before the plate was read at 450 nm.
In the case of B1, the concentration giving a half-maximal response (EC50) came out at 0.00656 µg/mL.
For the molecule B2, the EC50 amounted to 0.13 µg/mL.
On to B3, for which the concentration giving a half-maximal response (EC50) came out at 0.0143 µg/mL.
On to B4, for which the concentration giving a half-maximal response (EC50) worked out at 0.00794 µg/mL.
B5: the half-maximal effective concentration (EC50) was found to be 0.0292 µg/mL.
Consider B6, for which the EC50 was found to be 0.151 µg/mL.
On to B7, for which the concentration for a half-maximal effect (EC50) was 0.00942 µg/mL.
Take B8: the concentration for a half-maximal effect (EC50) turned out to be 0.0119 µg/mL.
Turning to B9, the EC50 was 0.0182 µg/mL.
Same read-out and setting: the result for B10 reads 0.00737 µg/mL.
Still for that read-out and setting: for B11 the value was 0.00224 µg/mL; for B12, 0.0944 µg/mL.
Turning to B13, the EC50 was 0.011 µg/mL.
Still for that read-out and setting: the result for B14 reads 0.482 µg/mL; that for B15, 0.011 µg/mL.
B16: the EC50 is 0.0178 µg/mL.

The target of another assay is T1, recombinant LILRB1. Put plainly: BLI (Octet RED96), antibody on biosensor, recombinant LILRB1 in solution.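 Also: Background-subtracted sensorgrams fitted with a one-to-one binding model, KD taken as koff over kon.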 On the technique in general: In BLI a coated tip is dipped into the sample, and binding shifts an interference pattern.
Experimental: Following a short baseline in kinetics buffer for 20 s, the loaded biosensors were exposed to solutions of recombinant LILRB1 in a range of concentrations (0-500 nM). After background was subtracted, data was fit to a 1:1 binding model to extract an association rate ($kon$) and dissociation rate ($koff$). The KD was calculated using the ratio $koff/kon$. […] All experiments were performed with shaking at 1,000 rpm. All raw data was processed using ForteBio Octet Data Analysis Software 9.0.
B1: the equilibrium dissociation constant (Kd) was 1.37 nM, the koff worked out at 0.000262 s⁻¹ and the association rate constant (kon) turned out to be 192000 M⁻¹ s⁻¹.
The like results for B2 were, in that order, 16.1 nM, 0.00145 s⁻¹ and 89900 M⁻¹ s⁻¹.
As for B3, the dissociation constant Kd was found to be 1.59 nM, the off-rate (koff) was determined as 0.000273 s⁻¹ and the kon came to 172000 M⁻¹ s⁻¹.
The like results for B4 were, in that order, 1.27 nM, 0.000161 s⁻¹ and 127000 M⁻¹ s⁻¹.
As for B5, the Kd turned out to be 0.611 nM, the koff came to 8.62e-05 s⁻¹ and the on-rate (kon) is 141000 M⁻¹ s⁻¹.
Consider B7, for which the dissociation constant (Kd) was 0.0272 nM, the dissociation rate constant (koff) is 5.92e-06 s⁻¹ and the kon is 218000 M⁻¹ s⁻¹.
In the case of B8, the Kd was found to be 0.505 nM, the koff came to 5.63e-05 s⁻¹ and the on-rate (kon) was found to be 112000 M⁻¹ s⁻¹.
For B11, the Kd is 0.619 nM, the koff turned out to be 5.59e-05 s⁻¹ and the kon worked out at 90300 M⁻¹ s⁻¹.
B12: the Kd was determined as 15.8 nM, the koff came to 0.00506 s⁻¹ and the kon is 320000 M⁻¹ s⁻¹.
Taken in the same sequence, the figures for B13 were 3.14 nM, 0.000237 s⁻¹ and 75700 M⁻¹ s⁻¹.
For B14, the Kd turned out to be 8.54 nM, the koff came out at 0.000338 s⁻¹ and the on-rate (kon) was 39600 M⁻¹ s⁻¹.
As to B15, the Kd was 3.03 nM, the dissociation rate constant (koff) worked out at 0.000209 s⁻¹ and the kon came to 68900 M⁻¹ s⁻¹.

A further assay concerns the target T2, LILRA1 (human, UniProt O75019).
T2 construct: not the cell-surface form of MOLECULES; also called LILRA1 protein of the ELISA and Octet specificity tests
Put plainly: Octet RED96, cross-reactivity table.
For B17, the binding result is “binds”.
In the case of B10, the binding result is reported as “no binding (tested: not given)”.
